Experiment: label from the status in PepcDB records

Sequence | protein production
MKMVLFSFLLGCCSLLVSAQQPVDYVNPFIGTSNYGTTNPGAICPQGMMSVTPFNVMGSKSNKFDKDSQWWSTPYSADNNFFTGYAHVNLSGVGCPEMGSLLLMPTSGELNVDYHAYGSEYKNEVAHPGYYSNILTKYDIKTEATASMRTGLTRFTFPKGQGNILLNLGEGLTNETGATVRMVSDTEIEGSKLLGTFCYNPQAVFPIYFVMKLSKAPKQAGYWKKQREMKGVEAEWDAYSGKYKLYTKYDREMSGDDIGVWFKYDTEEDEVIEVKMGVSFVSIENARLNMNTEQPDFNFDKVRAAAGKMWNDDLSRVMVEGGTNDDKTIFYTAIYHLLIHPNIIQDVNGEYPMMESLKVGHTTGNRYTVFSLWDTYRNVSTLMTLLYPEKQLDIIRTMIDMYKESGWLPKWELYGRETLTMEGDPSIPYIVDAYMRGLRDYDIETAYEGMCKGATTPGEFNLLRPDNNDYMSKGYVPLREQYDNSVSHALEYYIADWNLSLLADALGKKEDAKLFRERAMGYKHYYCKEFGTLRPILPDGTFYSPFDPKQGENFEPSPGFHEGNAWNYTFYVPHDIKGLAKLMGGQKKFVDKLQMVFDKGYYDMANEPDIAYPYLFSYFKGEAWRTQKLVCELLGKYYHNAPNGLPGNDDTGTMSTWAIFSMMGFYPACPGDLDYVVTSPTFNKVTIRLDEKFYPKGELVIESARKTPEDIYIKEVTAGGKKLKGYTISQDELVNAGTLRFTLENKH | failed
MQIYQLSGRNVEVTEPMREYVEEKLSRLDRYTDQITDARVTLTVRDVRNNERRNRVEVQLNVPGGIIRAEEHHADMYAAIDKASDVLERQLRKFKTRYMKQRQEGRPEPLPGPAEAEVNAQGSGAAMDDVSEFHPEIVRQKRFELRPMSAEDAVVQMEALGHDFYVFQDLQGQTGVVYRRRDGHYGLIGSS | failed
MSDHPGSNAANPPPVPGAPALRTRRFNVSLVWLVPIVAALVGLSMVVHNSLSAGPEISISFQTAEGLEANKTQVKYKNVVIGKVTSIALSDDRKKVVAKVELDQSAEPFTADDSLFWVVRPRIGANGISGVDTLLSGAFIGADAGKSEKRKDSFKGLETPPPITYGQKGKRFTLHTDDLGSLDIGSPVYYRRIEVGQVVSYQLANSGKGVDVKIFVNSPNDKYVTTDTRFWNASGVDVTLGANGLKVNTESVSSILAGGIAFVEPKYSPNAKPADENAEYTLFGDQDTALAPPDGAPYYIRMRFDQALRGLSVNAPVEFLGVNIGKVVSMDLDYDEQRKYFPTLVGAVIYPERLGKAHEKLVKQTGGEDDVRSAKLIGAFVKNGLRAQPRSGNLLTGQLYISLDFVTNAKPVAYDATARPLEIPTVPGSMDKLQEQLQAVVDKISKLPIDSIAANLNGSLAEMQKTLKQVNGEVLPQMRDTLEQSKKTLASANESFSEDSPQRQKLGQAMEEVQRTARSVRVLSDFLGRHPEALIRGRLKDNQPDAYQSPSSSVRESVPEAQP | failed
MGEAAKDQTEEVIQAWYLDNKEEDQKLPHHKDPKEFVSLDKLAELGVLCWRLDADNYETDEELKRIRESRGYSYMDLCEVCPEKLPNYEEKVKMFFEEHLHIDEEIRYCLAGSGYFDVRDLNDIWIRVWVKKGGLIVFPAGIYHRFTVDSDNYMKAMRLFVGGPVWTAYNRPHDHLPARKAYMKKFLKVIGDRNIDASA | failed
FLVTPEGRRIAYRLTDGEGPAVVFCGGFKSDMEGTKALHLQAWAERTGRAFLRFDYSGHGQSEGAFLDGSIGDWFEDARAVCGLLAGPLLLVGSSMGGWISLLLAREMGARVAGLVGIAAAPDFTEDSMWGGFNAAQREALQRAGQVILPSDYSEEPYIITRRLIEEGRRRLVLRDPLELGFPVRLLQGTADVDVPPSVALRLLDHATGPDIRLTLVKGADHRFSTPECLRMIEQAVEELL | failed
MKVLLIIPAYNEEENILRTIASIETFKQEVTHFQHELDYVVINDGSTDGTKQILEANQINAIHLVLNLGIGGAVQTGYKYALENEYDVAVQFDGDGQHDINSLPILLEPLAEGKCDFSIGSRFIPGNEASFQSTKMRRFGIRLLSFCIRMASGKTIYDVTSGYRAGNRKVIAFFAKRYPTNYPEPESIVHLIKKRFVIVERPVNMMERLGGVSSIRALASVKYMLEVGSAILIAAFMKEGDLEHHHHHH | not failed
MAAPMEVAVCTDSAAPMWSCIVWELHSGANLLTYRGGQAGPRGLALLNGEYLLAAQLGKNYISAWELQRKDQLQQKIMCPGPVTCLTASPNGLYVLAGVAESIHLWEVSTGNLLVILSRHYQDVSCLQFTGDSSHFISGGKDCLVLVWSLCSVLQADPSRIPAPRHVWSHHTLPITDLHCGFGGPLARVATSSLDQTVKLWEVSSGELLLSVLFDVSIMAVTMDLAEHHMFCGGSEGSIFQVDLFTWPGQRERSFHPEQDAGKVFKGHRNQVTCLSVSTDGSVLLSGSHDETVRLWDVQSKQCIRTVALKGPVTNAAILLAPVSMLSSDFRPSLPLPHFNKHLLGAEHGDEPRHGGLTLRLGLHQQGSEPSYLDRTEQLQAVLCSTMEKSVLGGQDQLRVRVTELEDEVRNLRKINRDLFDFSTRFITRPAK | failed
MSVEKKVNDLLQKMTIEEKVYQLTSILIQDILENDKFSPQKAKEKIPHGIGQITRLAGASNLSPQEAAKTANEIQKFLIENTRLGIPAMIHEESCSGFMAKGATVFPQSIGVACTFDNEIVEELAKVIRTQMKAVGAHQALAPLIDVARDARWGRVEETFGEDPYLVANMAVSYVKGLQGDDIKKGIVATGKHFVGYAMSEGGMNWAPVHIPERELREVYLYPFEVAVKVAGLKSIMPAYHEIDGIPCHANRKLLTDIARNEWGFDGIYVSDYSGVRNLLDYHKSVKTYEEAAALSLWAGLDIELPKIECFTEEFIKALKEGKFDMTLVDAAVKRVLEMKFRLGLFDNPYIKTDGIVELFDNKEQRQLSRRVAQESMVLLKNDNFLPLSKDSKKIAVIGPNANSVRNLLGDYSYPAHIATLEMFFIKEDKGVGNEEEFVRNVINMKSIFEAIKDKVSSNTEVVYAKGCDVNSQDRSGFEEAKKAAADADAVILVVGDKAGLRLDCTSGESRDRASLRLPGVQEDLVKEIVSVNPNTVVVLVNGRPVALDWIMENVKAVLEAWFPGEEGANAVADVLFGDYNPGGKLAISFPRDVGQVPVYYGHKPSGGKSCWHGDYVEMSTKPLLPFGYGLSYTTFEYKNFAIEKEKIGMDESIKISVEIENTGKYEGDEIVQLYTRKEEYLVTRPVKELKGYKRVHLKPGEKKKVVFELYPDLFAFYDYDMNRVVTPGVVEVMIGASSEDIKFTGTFEIVGSKKDAKELKHYFSKVWCE | failed
MSAGLVQAAYIVAALFFIMSLAGLSKQESARNGNYYGIAGMAIALIATIFSPDAQGFGWIIIAMAIGGAIGIFYAKKVEMTEMPELVAILHSFVGLAAVLVGYNSYLDAPEAATHAEHVIHLVEVFLGVFIGAVTFTGSIVAFGKLRGVISSSPLNLPHKHKMNLAAIVVSTLLMIYFVKADGSMFALIVMTLIAFAFGYHLVASIGGADMPVVVSMLNSYSGWAAAAAGFMLANDLLIVTGALVGSSGAILSYIMCKAMNRSFISVIAGGFGQEIIISSDEEQGEHRETTAEEVAEMLKNSKSVIITPGYGMAVAQAQYPVHEITDALRSQGIEVRFGIHPVAGRLPGHMNVLLAEAKVPYDIVLEMDEINDDFSETDTVLVIGANDTVNPAALEDPNSPIAGMPVLEVWNAKNVIVFKRSMNTGYAGVQNPLFFKENTSMLFGDAKESVEAIFKAL | not failed
EEHRGEEILAVFDTAFGQLLAADPAAFRVKFRKMAASAFAFYRGTAGLFYRDLTEDPDFGDQHGGAYLDERTSRVWIHGDLHAENFGTYMDSTGRLIFNVNDFDEAYVGPFTWDLKRFAASVALIGYAKAFSDEQITELVRVY | failed
MMTTNTEYAPYRLELVNITKRYGGLVANDHISLKVAAGEIHAVLGENGAGKSTLMKIIYGAVKADEGEIVWNGRSVTVDSPAAARRLGIGMVYQHFSLFETLTVVENIALGLEEKFDLAHLAQRVVEVSEKYGLPIDPQRMVHSLSVGERQRVEIVRCLLQNPSLLILDEPTSVLTPQAVQVLFQTLRRLASEGVSILYISHKLNEIQSLCDTATILRGGQVTGTAIPKQETTASLAKMMIGRDLPAYQQHAYEGVQQPIFQVKQLSIPAQDMFGTSLKEINLSVNTGEILGIAGISGNGQAELLTALSGETTSLKESFWLDGQAIGHLHAGQRRKLGFGFVPEERLGRGAVPAMSLTENTLLTAFRMGMTRWGLVNYAKASAFAQACISKFGVKASGSDAAARSLSGGNLQKFIVGREIMQQPKVMVVAQPTWGVDVGASAFIRQTLIDLSRQGVAIVVISEELEELFEISDRIAVLAAGQLSPPQPVNETNAEQIGLLMSGLQRDSQPQEDVIRVSI | failed
MSITLLTGIGEIFLGILLNVFIGKIVKIVFKKDGTLPRVPVRFIGITLILNGVGNMVHL | failed
ARGHRHTCKVMVLKEEAAGSERALALDMREGQRVFHSLIVHFENDIPVQIEDRFVNAQVAPDYLKQDFTLQTPYAYLSQVAPLTEGEHVVEAILAEADECKLLQIDAGEPCLLIRRRTWSGRQPVTAARLIHPGSRHRLEGRFTK | not failed
MTQVRETVSFKAGDVILYPGVPGPRDRAYRVLEGLVRLEAVDEEGNALTLRLVRPGGFFGEEALFGQERIYFAEAATDVRLEPLPENPDPELLKDLAQHLSQGLAEAYRRIERLATQRLKNRMAAALLELSETPLAHEEEGKVVLKATHDELAAAVGSVRETVTKVIGELAREGYIRSGYGKIQLLDLKGLKELAESRGQGR | not failed
DYQKEYERKLISPEEAANLVKDGMHIEIGGSANTALIIDKYLAKRKDELSHVEVGTFIDIAHYEFLKADPEQEKIKWESCFLYEPVRKCSKELGPCVHRPGVLSDAGYIAKELGGVLKGGKKYTDIAFLVTTPMDRHGFFNFGVTCTFLKSIAEGAEKVVVVVKKDMPWVNGGYDECIHISEVDYIVEDNEFPTPFLPFLPPPSKEDEMIAENIMEAGLIENGSTLQVGIGGLPNTVVRMLKEAGLKDLGIHTEMMGDGLMELMEEGIVTNQNKKLDRGKAVFSFALGTRKLYDFLDRNPEVATYPVEYTNNPFVVAQQPKMFSLNQVAQIDLMGQINSGQIGLTSPSGKIFQISGTGGQLDFVLGCFYSFDRQGKSVLATYSTYNGTSRIIPALPTGAGVTVPRSVVQYVATEWGIAYLRGLPIYKRAAAMIQLAHPDHRDWLEEEARKLGILPPKYSIPAGKADGVIYRRD | failed
MDRTEQKSIIEGLLFVSGDEGIYPEQIAKVLEIEGNEVIDILEEMQKECEGAHRGLQIVQYAKVYRFATKKEHASYYQKLIEIPTAASLSQAALETLAIVAYRQPITRTEMEEIRGVKTDKALQTLVSHLLIKEMGRAEGPGRPILYGTTKEFLDTFGLKTLDDLPPLSEENEQMNEADLFFGSLQEISK | failed
MDKEQRNIVVFNASKRELFTSSSGYKSLQKKLRAQWKIQSIKEELTLEKLQGVKLWITAGPREKFTAAELEVLKQYLDSGGALLVMIGEGGELKYDTNINFLLEEFGIMVNNDAVIRNVYYKYFHPKEALVSNGVLNREISRAAGKVVTGVIDEENTGNNSQALTFVYPYGATLNVMKPAVAILSTGSVCFPLNRPVLAFHHSKNAGKLAVLGSCHMFSDQYLDKEENSRIMDVVFQWLTTDSIHLNQIDAEDPEITDYMMLPDTGSLSERLRVCLQEGDENPRDFTSLFDMSLLKLHTNTLPSVLDAYKQLNVKHEALQLITPQFETPLPPLQPAVFQPAFRDLPPPMLDLFDLDETFSSEKVRLAQLSNKCTDDDLEFYVRKCGDILGVTGNLDKDKRDAKHILEHVFFQVVEFKKLNEEHDVDTAEARFSMY | not failed
MQINGKAPRNKDLEPHSFELWLNAAKTNLDKYEMALIITATLGLRRGEVMGLRNESIKISHDQINDADVAQISIDMQRNTNELNGGPLKTKSSYRTIWAFGKTVDHLKYAMITADNLRQRNNIQAEKHWLWLNNDGNPLHPTHLNRLMRRVSNRSGVEVYPHLLRHYFATQAIAANKPQIDVMHYLGHKNLQMTADYTRSTKAASLNVFNSIDKFLLEHHHHHH | not failed
